To fix the notation:
B1: N^ε28-[2-[2-[2-[[2-[2-[2-[[(4S)-4-carboxy-4-[[(4S)-4-carboxy-4-[[(4S)-4-carboxy-4-(17-carboxyheptadecanoylamino)butanoyl]amino]butanoyl]amino]butanoyl]amino]eth … (peptide)
peptide: H[Aib]QGTFTSDLSKYLDARRARDFVQWLIK([AEEA-AEEA-γGlu-γGlu-γGlu-C18 diacid])T-NH2
modifications: N-terminus assumed
SMILES: CC[C@H](C)[C@H](NC(=O)[C@H](CC(C)C)NC(=O)[C@H](Cc1c[nH]c2ccccc12)NC(=O)[C@H](CCC(N)=O)NC(=O)[C@@H](NC(=O)[C@H](Cc1ccccc1)NC(=O)[C@H](CC(=O)O)NC(=O)[C@H](CCCNC(=N)N)NC(=O)[C@H](C)NC(=O)[C@H](CCCNC(=N)N)NC(=O)[C@H](CCCNC(=N)N)NC(=O)[C@H](C)NC(=O)[C@H](CC(=O)O)NC(=O)[C@H](CC(C)C)NC(=O)[C@H](Cc1ccc(O)cc1)NC(=O)[C@H](CCCCN)NC(=O)[C@H](CO)NC(=O)[C@H](CC(C)C)NC(=O)[C@H](CC(=O)O)NC(=O)[C@H](CO)NC(=O)[C@@H](NC(=O)[C@H](Cc1ccccc1)NC(=O)[C@@H](NC(=O)CNC(=O)[C@H](CCC(N)=O)NC(=O)C(C)(C)NC(=O)[C@@H](N)Cc1c[nH]cn1)[C@@H](C)O)[C@@H](C)O)C(C)C)C(=O)N[C@@H](CCCCNC(=O)COCCOCCNC(=O)COCCOCCNC(=O)CC[C@H](NC(=O)CC[C@H](NC(=O)CC[C@H](NC(=O)CCCCCCCCCCCCCCCCC(=O)O)C(=O)O)C(=O)O)C(=O)O)C(=O)N[C@H](C(N)=O)[C@@H](C)O
notes: also called Chem. 5; Chem 5
B2: N^ε28-[(4S)-4-carboxy-4-[[(4S)-4-carboxy-4-[[2-[2-[2-[[2-[2-[2-[[(4S)-4-carboxy-4-[[(4S)-4-carboxy-4-(17-carboxyheptadecanoylamino)butanoyl]amino]butanoyl]amino … (peptide)
peptide: H[Ac4c]QGTFTSDVSKYLESRRAREFVQWLIK([γGlu-γGlu-AEEA-AEEA-γGlu-γGlu-C18 diacid])T-NH2
modifications: N-terminus assumed
SMILES: CC[C@H](C)[C@H](NC(=O)[C@H](CC(C)C)NC(=O)[C@H](Cc1c[nH]c2ccccc12)NC(=O)[C@H](CCC(N)=O)NC(=O)[C@@H](NC(=O)[C@H](Cc1ccccc1)NC(=O)[C@H](CCC(=O)O)NC(=O)[C@H](CCCNC(=N)N)NC(=O)[C@H](C)NC(=O)[C@H](CCCNC(=N)N)NC(=O)[C@H](CCCNC(=N)N)NC(=O)[C@H](CO)NC(=O)[C@H](CCC(=O)O)NC(=O)[C@H](CC(C)C)NC(=O)[C@H](Cc1ccc(O)cc1)NC(=O)[C@H](CCCCN)NC(=O)[C@H](CO)NC(=O)[C@@H](NC(=O)[C@H](CC(=O)O)NC(=O)[C@H](CO)NC(=O)[C@@H](NC(=O)[C@H](Cc1ccccc1)NC(=O)[C@@H](NC(=O)CNC(=O)[C@H](CCC(N)=O)NC(=O)C1(NC(=O)[C@@H](N)Cc2c[nH]cn2)CCC1)[C@@H](C)O)[C@@H](C)O)C(C)C)C(C)C)C(=O)N[C@@H](CCCCNC(=O)CC[C@H](NC(=O)CC[C@H](NC(=O)COCCOCCNC(=O)COCCOCCNC(=O)CC[C@H](NC(=O)CC[C@H](NC(=O)CCCCCCCCCCCCCCCCC(=O)O)C(=O)O)C(=O)O)C(=O)O)C(=O)O)C(=O)N[C@H](C(N)=O)[C@@H](C)O
notes: also called Chem. 19; Chem 19
B3: N^ε24-[2-[2-[2-[[2-[2-[2-[[(4S)-4-carboxy-4-[[(4S)-4-carboxy-4-[[(4S)-4-carboxy-4-(17-carboxyheptadecanoylamino)butanoyl]amino]butanoyl]amino]butanoyl]amino]eth … (peptide)
peptide: H[Aib]QGTFTSDYSKYLDARRARDFVK([AEEA-AEEA-γGlu-γGlu-γGlu-C18 diacid])WLIST-NH2
modifications: N-terminus assumed
SMILES: CC[C@H](C)[C@H](NC(=O)[C@H](CC(C)C)NC(=O)[C@H](Cc1c[nH]c2ccccc12)NC(=O)[C@H](CCCCNC(=O)COCCOCCNC(=O)COCCOCCNC(=O)CC[C@H](NC(=O)CC[C@H](NC(=O)CC[C@H](NC(=O)CCCCCCCCCCCCCCCCC(=O)O)C(=O)O)C(=O)O)C(=O)O)NC(=O)[C@@H](NC(=O)[C@H](Cc1ccccc1)NC(=O)[C@H](CC(=O)O)NC(=O)[C@H](CCCNC(=N)N)NC(=O)[C@H](C)NC(=O)[C@H](CCCNC(=N)N)NC(=O)[C@H](CCCNC(=N)N)NC(=O)[C@H](C)NC(=O)[C@H](CC(=O)O)NC(=O)[C@H](CC(C)C)NC(=O)[C@H](Cc1ccc(O)cc1)NC(=O)[C@H](CCCCN)NC(=O)[C@H](CO)NC(=O)[C@H](Cc1ccc(O)cc1)NC(=O)[C@H](CC(=O)O)NC(=O)[C@H](CO)NC(=O)[C@@H](NC(=O)[C@H](Cc1ccccc1)NC(=O)[C@@H](NC(=O)CNC(=O)[C@H](CCC(N)=O)NC(=O)C(C)(C)NC(=O)[C@@H](N)Cc1c[nH]cn1)[C@@H](C)O)[C@@H](C)O)C(C)C)C(=O)N[C@@H](CO)C(=O)N[C@H](C(N)=O)[C@@H](C)O
notes: also called Chem. 1; Chem 1
B4: N^ε24-[2-[2-[2-[[2-[2-[2-[[(4S)-4-carboxy-4-[[(4S)-4-carboxy-4-[[(4S)-4-carboxy-4-(17-carboxyheptadecanoylamino)butanoyl]amino]butanoyl]amino]butanoyl]amino]eth … (peptide)
peptide: H[Aib]QGTFTSDYSKYLESRRARDFVK([AEEA-AEEA-γGlu-γGlu-γGlu-C18 diacid])WLIST-NH2
modifications: N-terminus assumed
SMILES: CC[C@H](C)[C@H](NC(=O)[C@H](CC(C)C)NC(=O)[C@H](Cc1c[nH]c2ccccc12)NC(=O)[C@H](CCCCNC(=O)COCCOCCNC(=O)COCCOCCNC(=O)CC[C@H](NC(=O)CC[C@H](NC(=O)CC[C@H](NC(=O)CCCCCCCCCCCCCCCCC(=O)O)C(=O)O)C(=O)O)C(=O)O)NC(=O)[C@@H](NC(=O)[C@H](Cc1ccccc1)NC(=O)[C@H](CC(=O)O)NC(=O)[C@H](CCCNC(=N)N)NC(=O)[C@H](C)NC(=O)[C@H](CCCNC(=N)N)NC(=O)[C@H](CCCNC(=N)N)NC(=O)[C@H](CO)NC(=O)[C@H](CCC(=O)O)NC(=O)[C@H](CC(C)C)NC(=O)[C@H](Cc1ccc(O)cc1)NC(=O)[C@H](CCCCN)NC(=O)[C@H](CO)NC(=O)[C@H](Cc1ccc(O)cc1)NC(=O)[C@H](CC(=O)O)NC(=O)[C@H](CO)NC(=O)[C@@H](NC(=O)[C@H](Cc1ccccc1)NC(=O)[C@@H](NC(=O)CNC(=O)[C@H](CCC(N)=O)NC(=O)C(C)(C)NC(=O)[C@@H](N)Cc1c[nH]cn1)[C@@H](C)O)[C@@H](C)O)C(C)C)C(=O)N[C@@H](CO)C(=O)N[C@H](C(N)=O)[C@@H](C)O
notes: also called Chem. 11; Chem 11

We go through 5 molecules from patent US20170101454A1 (Novo Nordisk, published 2017).

Starred links: 1 amine or outer side, 2 acyl side, 3 side chain; linkers in the order of their positions; H or OH if unused. Non-standard residues stand in square brackets, D forms with d. Groups on a side chain read outwards from the residue. No end group written: not given here. *: point of attachment. C18 diacid = O=C(O)CCCCCCCCCCCCCCCCC(=O)*; γGlu = O=C(O)[C@H](CCC(=O)[*:2])N[*:1]; Ac4c = NC1(C(=O)O)CCC1; AEEA = NCCOCCOCC(=O)O; Aib = CC(C)(N)C(=O)O

T1 sequence (P47871 26-477): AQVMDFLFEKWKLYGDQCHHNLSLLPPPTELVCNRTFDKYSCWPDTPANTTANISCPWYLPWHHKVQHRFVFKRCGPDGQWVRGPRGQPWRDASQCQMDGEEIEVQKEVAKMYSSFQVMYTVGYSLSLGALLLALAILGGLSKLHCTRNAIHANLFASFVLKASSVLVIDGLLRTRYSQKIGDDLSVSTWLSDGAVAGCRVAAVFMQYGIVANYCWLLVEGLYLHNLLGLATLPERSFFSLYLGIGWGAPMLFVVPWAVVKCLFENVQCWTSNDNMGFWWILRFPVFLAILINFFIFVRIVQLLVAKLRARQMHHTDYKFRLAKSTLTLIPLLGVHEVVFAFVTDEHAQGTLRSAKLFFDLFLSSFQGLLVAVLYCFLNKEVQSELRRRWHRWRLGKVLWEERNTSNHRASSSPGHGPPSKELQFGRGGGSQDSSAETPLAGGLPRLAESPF

One assay addresses T1, human glucagon receptor (human, UniProt P47871 26-477).
T1 construct: whole, on cells; reporter assay used whole cells; also called hGCGR
Kind of assay: displacement of [125I]-glucagon from BHK membranes with human glucagon receptor, SPA, no serum albumin.
With H[Aib]QGTFTSDLSKYLDARRARDFVQWLIK([γGlu-γGlu-γGlu-C18 diacid])T-NH2 (also called Chem. 15; Chem 15), the half-inhibitory concentration (IC50) (in general, the concentration that gives 50% inhibition) was 1.7 nM.

In turn, B1 yielded a concentration for half-maximal inhibition (IC50) of 6.7 nM.

Take B2: the IC50 came to 2.5 nM.

Regarding B3, the IC50 amounted to 11.3 nM.

With B4, the IC50 was found to be 52 nM.

The next assay deals with T1, human glucagon receptor. Kind of assay: cell-based or functional assay.
H[Aib]QGTFTSDLSKYLDARRARDFVQWLIK([γGlu-γGlu-γGlu-C18 diacid])T-NH2 (also called Chem. 15; Chem 15): the “GlucagonR EC50 (pM), [Assay (I)(b)], CRE luciferase reporter, BHK cells” value (shortened to “GlucagonR EC50 (pM), [Assay (I)(b)]”) is 7 pM.

As to B1, the “GlucagonR EC50 (pM), [Assay (I)(b)]” value was determined as 29 pM.

For B2, the “GlucagonR EC50 (pM), [Assay (I)(b)]” value is 37 pM.

For the molecule B3, the “GlucagonR EC50 (pM), [Assay (I)(b)]” value came out at 17.5 pM.

For the molecule B4, the “GlucagonR EC50 (pM), [Assay (I)(b)]” value came out at 428 pM.

The next assay addresses T2, human GLP-1 receptor (human, UniProt P43220 24-463). Description: cell-based or functional assay.
Regarding H[Aib]QGTFTSDLSKYLDARRARDFVQWLIK([γGlu-γGlu-γGlu-C18 diacid])T-NH2 (also called Chem. 15; Chem 15), the “GLP-1R EC50 (pM) [Assay (I)(a)], CRE luciferase reporter, BHK cells” value (shortened to “GLP-1R EC50 (pM) [Assay (I)(a)]”) came out at 4 pM.

On to B1, for which the “GLP-1R EC50 (pM) [Assay (I)(a)]” value was 5.5 pM.

Turning to B2, the “GLP-1R EC50 (pM) [Assay (I)(a)]” value turned out to be 6 pM.

For B3, the “GLP-1R EC50 (pM) [Assay (I)(a)]” value was found to be 3.5 pM.

For B4, the “GLP-1R EC50 (pM) [Assay (I)(a)]” value was found to be 8 pM.

For a further assay, the target named is T2, human GLP-1 receptor. Kind of assay: displacement of [125I]-GLP-1-(7-36)NH2 from BHK membranes with human GLP-1R, SPA, no serum albumin.
B1 had an IC50 of 0.1 nM.

In turn, B3 came in with an IC50 of 0.9 nM.

In turn, B4 came in with an IC50 of 0.5 nM.
